Test results reported in patent US20240182536A1 (MURAL ONCOLOGY, published 2024).

T1: IL-18 receptors on HEK-Blue IL-18 reporter cells (UniProt Q13478 19-541; O95256 20-599, limits assumed)
T1 sequence (looked up) 1: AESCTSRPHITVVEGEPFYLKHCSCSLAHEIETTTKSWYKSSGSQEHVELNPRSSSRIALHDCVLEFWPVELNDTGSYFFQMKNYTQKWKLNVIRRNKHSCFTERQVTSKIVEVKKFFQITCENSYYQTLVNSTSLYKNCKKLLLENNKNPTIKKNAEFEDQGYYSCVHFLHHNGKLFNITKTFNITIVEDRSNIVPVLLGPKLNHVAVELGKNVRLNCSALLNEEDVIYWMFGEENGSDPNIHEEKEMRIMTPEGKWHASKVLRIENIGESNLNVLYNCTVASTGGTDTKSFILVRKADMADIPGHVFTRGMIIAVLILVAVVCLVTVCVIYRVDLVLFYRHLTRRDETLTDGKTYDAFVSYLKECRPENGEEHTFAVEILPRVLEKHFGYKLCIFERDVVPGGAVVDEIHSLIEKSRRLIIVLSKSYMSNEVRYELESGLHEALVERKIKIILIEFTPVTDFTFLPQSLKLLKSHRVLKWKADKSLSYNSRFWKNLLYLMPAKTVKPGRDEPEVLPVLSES
T1 sequence (looked up) 2: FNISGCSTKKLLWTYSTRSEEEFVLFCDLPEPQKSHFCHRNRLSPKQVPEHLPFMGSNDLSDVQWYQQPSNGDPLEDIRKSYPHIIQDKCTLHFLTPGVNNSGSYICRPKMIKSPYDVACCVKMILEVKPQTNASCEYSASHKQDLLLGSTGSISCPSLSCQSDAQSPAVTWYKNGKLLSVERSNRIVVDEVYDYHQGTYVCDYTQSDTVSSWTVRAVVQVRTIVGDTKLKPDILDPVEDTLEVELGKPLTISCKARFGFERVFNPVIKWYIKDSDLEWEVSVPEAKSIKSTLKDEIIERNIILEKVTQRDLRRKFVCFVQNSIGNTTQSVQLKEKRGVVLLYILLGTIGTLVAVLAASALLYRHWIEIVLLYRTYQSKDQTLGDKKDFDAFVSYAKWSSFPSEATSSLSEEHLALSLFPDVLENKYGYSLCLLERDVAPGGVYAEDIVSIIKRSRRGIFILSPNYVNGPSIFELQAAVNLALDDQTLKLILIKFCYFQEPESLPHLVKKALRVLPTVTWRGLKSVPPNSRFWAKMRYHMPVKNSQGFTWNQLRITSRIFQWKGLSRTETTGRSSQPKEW

T2: interleukin 18 binding protein (IL-18BP) (UniProt O95998 31-194)
T2 sequence (looked up): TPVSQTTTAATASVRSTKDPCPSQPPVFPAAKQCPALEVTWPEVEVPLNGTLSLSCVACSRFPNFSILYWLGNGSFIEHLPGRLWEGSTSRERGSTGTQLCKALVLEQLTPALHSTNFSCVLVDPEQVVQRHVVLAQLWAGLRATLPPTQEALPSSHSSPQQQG


Tests used:
[1] = target: T1, IL-18 receptors on HEK-Blue IL-18 …; test: cell-based or functional assay
[2] = target: T2, interleukin 18 binding protein (IL-18BP); test: cell-based or functional assay

Binder	HEK-Blue activity, No BP, DF-10000 [1]	HEK-Blue activity, No BP, DF-100,000 [1]	HEK-Blue activity, No BP, DF-1,000,000 [1]	HEK-Blue activity, +100 nM BP, DF-10000 [2]	HEK-Blue activity, +100 nM BP, DF-100,000 [2]	HEK-Blue activity, +100 nM BP, DF-1,000,000 [2]	Ratio (-BP/+BP), DF-10000 [2]	Ratio (-BP/+BP), DF-100,000 [2]	Ratio (-BP/+BP), DF-1,000,000 [2]
IL-18 variant K53D, S55E (ligand) YFGKLESKLSVIRNLNDQVLFIDQGNRPLFEDMTDSDMRDNAPRTIFIISMYDDEQPRGMAVTISVKSEKISTLSSENKIISFKEMNPPDNIKDTKSDIIFFQRSVPGHDNKMQFESSSYEGYFLASEKERDLFKLILKKEDELGDRSIMFTVQNED	0.13	0.09	0.09	0.11	0.09	0.08	1.22	1.07	1.08
IL-18 variant K53H, S55R (ligand) YFGKLESKLSVIRNLNDQVLFIDQGNRPLFEDMTDSDMRDNAPRTIFIISMYHDRQPRGMAVTISVKSEKISTLSSENKIISFKEMNPPDNIKDTKSDIIFFQRSVPGHDNKMQFESSSYEGYFLASEKERDLFKLILKKEDELGDRSIMFTVQNED	0.12	0.1	0.09	0.12	0.09	0.09	0.97	1.09	1
IL-18 variant K53D, S55N, H109I (ligand) YFGKLESKLSVIRNLNDQVLFIDQGNRPLFEDMTDSDMRDNAPRTIFIISMYDDNQPRGMAVTISVKSEKISTLSSENKIISFKEMNPPDNIKDTKSDIIFFQRSVPGIDNKMQFESSSYEGYFLASEKERDLFKLILKKEDELGDRSIMFTVQNED	0.13	0.12	0.09	0.1	0.09	0.09	1.28	1.42	0.99
IL-18 variant T34N, S36Y, D37E, D40Q, N41Q, K53D, S55D (ligand) YFGKLESKLSVIRNLNDQVLFIDQGNRPLFEDMNDYEMRQQAPRTIFIISMYDDDQPRGMAVTISVKSEKISTLSSENKIISFKEMNPPDNIKDTKSDIIFFQRSVPGHDNKMQFESSSYEGYFLASEKERDLFKLILKKEDELGDRSIMFTVQNED	0.11	0.09	0.09	0.1	0.1	0.09	1.11	0.96	1
IL-18 variant K53N, S55H, H109F (ligand) YFGKLESKLSVIRNLNDQVLFIDQGNRPLFEDMTDSDMRDNAPRTIFIISMYNDHQPRGMAVTISVKSEKISTLSSENKIISFKEMNPPDNIKDTKSDIIFFQRSVPGFDNKMQFESSSYEGYFLASEKERDLFKLILKKEDELGDRSIMFTVQNED	0.13	0.1	0.1	0.11	0.09	0.09	1.17	1.06	1.17
IL-18 variant T34S, S36L, D37E, D40Y, N41M, K53T, S55K, P107K, H109Q (ligand) YFGKLESKLSVIRNLNDQVLFIDQGNRPLFEDMSDLEMRYMAPRTIFIISMYTDKQPRGMAVTISVKSEKISTLSSENKIISFKEMNPPDNIKDTKSDIIFFQRSVKGQDNKMQFESSSYEGYFLASEKERDLFKLILKKEDELGDRSIMFTVQNED	0.11	0.1	0.09	0.1	0.1	0.09	1.11	0.98	0.98
IL-18 variant K53H, S55M (ligand) YFGKLESKLSVIRNLNDQVLFIDQGNRPLFEDMTDSDMRDNAPRTIFIISMYHDMQPRGMAVTISVKSEKISTLSSENKIISFKEMNPPDNIKDTKSDIIFFQRSVPGHDNKMQFESSSYEGYFLASEKERDLFKLILKKEDELGDRSIMFTVQNED	0.13	0.1	0.09	0.12	0.09	0.09	1.12	1.03	1.09
IL-18 variant K53G, S55V, R104Y, H109N (ligand) YFGKLESKLSVIRNLNDQVLFIDQGNRPLFEDMTDSDMRDNAPRTIFIISMYGDVQPRGMAVTISVKSEKISTLSSENKIISFKEMNPPDNIKDTKSDIIFFQYSVPGNDNKMQFESSSYEGYFLASEKERDLFKLILKKEDELGDRSIMFTVQNED	0.13	0.12	0.1	0.11	0.14	0.1	1.17	0.9	1.02
IL-18 variant K53H, S55M, T63S (ligand) YFGKLESKLSVIRNLNDQVLFIDQGNRPLFEDMTDSDMRDNAPRTIFIISMYHDMQPRGMAVSISVKSEKISTLSSENKIISFKEMNPPDNIKDTKSDIIFFQRSVPGHDNKMQFESSSYEGYFLASEKERDLFKLILKKEDELGDRSIMFTVQNED	0.13	0.1	0.09	0.18	0.12	0.11	0.72	0.83	0.83
IL-18 variant T34N, S36Y, D40H, N41T, K53G, S55Y (ligand) YFGKLESKLSVIRNLNDQVLFIDQGNRPLFEDMNDYDMRHTAPRTIFIISMYGDYQPRGMAVTISVKSEKISTLSSENKIISFKEMNPPDNIKDTKSDIIFFQRSVPGHDNKMQFESSSYEGYFLASEKERDLFKLILKKEDELGDRSIMFTVQNED	0.12	0.1	0.09	0.11	0.09	0.09	1.08	1.02	0.97
IL-18 variant K53L, S55G (ligand) YFGKLESKLSVIRNLNDQVLFIDQGNRPLFEDMTDSDMRDNAPRTIFIISMYLDGQPRGMAVTISVKSEKISTLSSENKIISFKEMNPPDNIKDTKSDIIFFQRSVPGHDNKMQFESSSYEGYFLASEKERDLFKLILKKEDELGDRSIMFTVQNED	0.12	0.1	0.09	0.14	0.11	0.11	0.87	0.92	0.89
IL-18 variant K53H, S55Y, Q56H (ligand) YFGKLESKLSVIRNLNDQVLFIDQGNRPLFEDMTDSDMRDNAPRTIFIISMYHDYHPRGMAVTISVKSEKISTLSSENKIISFKEMNPPDNIKDTKSDIIFFQRSVPGHDNKMQFESSSYEGYFLASEKERDLFKLILKKEDELGDRSIMFTVQNED	0.12	0.1	0.09	0.12	0.09	0.09	1.05	1.03	0.96
